Reference: PMC3444267

Key:
Experiment in all cases: semi-native SDS-PAGE with anti-HA immunoblot
[1] = biological target: BnGLP3.1:HA (Brassica napus)
[2] = biological target: BnGLP3.2:HA (Brassica napus)
[3] = biological target: BnGLP8:HA (Brassica napus)
[4] = biological target: BnGLP12.1:HA (Brassica napus)
[5] = biological target: BnGLP12.2:HA (Brassica napus)

Question: With BnGLP3.1:HA (natural protein) as the substance, how does the stoichiometry N [1] read?
Answer: 6

Question: BnGLP3.2:HA (natural protein) was tested. Which stoichiometry N [2] did it give?
Answer: 6

Question: For BnGLP8:HA (natural protein), which stoichiometry N [3] is on record?
Answer: 6

Question: BnGLP12.1:HA (natural protein) was tested. Which stoichiometry N [4] did it give?
Answer: 6

Question: How did the stoichiometry N [5] turn out when BnGLP12.2:HA (natural protein) was run?
Answer: 6
